Laboratory results: doi:10.1101/2021.01.08.425619 (bioRxiv, 2021)
Like-named read-outs stand apart in the source and are kept apart here.

B1: Panx peptide residues 455-466 (Panx1), LC8 binding site #1 (peptide)
peptide: TLYKNAATQTER
B2: Drosophila melanogaster LC8 (residues 1-89), co-expressed with Panx peptides (natural protein)
chain: MSDRKAVIKNADMSEEMQQDAVDCATQALEKYNIEKDIAAYIKKEFDKKYNPTWHCIVGRNFGSYVTHETRHFIYFYLGQVAILLFKSG
B3: recombinant SFiNX consisting of Panx[263-541], Nxf2[541-841], Nxt1, and LC8 (complex)
chain 1: ASSQNESSKERKLRDTELDYVPVRPDEHFIRPIKFSNLIERRPPQVEFNTVNLSKADKRSLAVARAELVLEQIQQKANKEEPPEFHMVDTICKLPVNESFRNQDCFENPSPICNNMNVVYKFNSTPGTRIDLSKWGLETVPEATKRLLRLLGIDVARLKELQSTVKPSQRILKLKKEQLEQGLAPTEEQETATLYKNAATQTERRTATRDAGTQVRLESKLNGAFWQNPHFDPMNLTQHQSNVMLALQEIYQTLPSATMAVKLSRALAPALAIIKGRQP
chain 2: LPSEYVRAVKEVFPQLTTLDGVDLQTNPGQSLQKNFLCDTGAYELVGAFLENYLREFENDEFRHNLYKYYSENSIFTLTCNYNVVQNHQTPKILQRLSKYNRHARNLRNKDYSKASDGVFFGCTYIVEILLQLPRVTHDFHSLQTDVMHYNGKGAVIYVAGLLRDEPPSTRNGHGSKTDIGGVLLGFSRQFVVTFDEANLGLGKRARRLKIANERLHITNPSKTAIRNAFSVNFPDPSERQAEEDSLDVKDHKLLLFQEVTGLISTWVTSIVEEADWDFERALKLFIQKNADHEIPDLAFA
chain 3: […]
chain 4: B2 chain
B4: His6-LC8, subunit of recombinant SFiNX (natural protein)
chain: B2 chain
B5: Panx[263-541], subunit of recombinant SFiNX (domain or fragment)
chain: B3 chain 1
B6: Nxf2[541-841], subunit of recombinant SFiNX (domain or fragment)
chain: B3 chain 2
B7: Panx peptide residues 455-480 (Panx1+2), both LC8 binding sites (peptide)
peptide: TLYKNAATQTERRTATRDAGTQVRLE
B8: Panx peptide residues 467-480 (Panx2), LC8 binding site #2 (peptide)
peptide: RTATRDAGTQVRLE

Assays:
[1] = target: Drosophila melanogaster LC8 (residues 1-89), expressed in isolation for ITC (Drosophila melanogaster, UniProt Q24117 1-89); assay: ITC
[2] = target: B2; assay: SEC-MALS
[3] = target: the molecule itself; assay: SEC-MALS
[4] = target: the molecule itself; assay: SEC-MALS; remark: listed apart in the source
[5] = target: B5; assay: SEC-MALS
[6] = target: B6; assay: SEC-MALS
[7] = target: Nxt1, subunit of recombinant SFiNX (Drosophila, UniProt Q9V3H8 1-133); assay: SEC-MALS

B1
Kd [1]: ~75 nM | stoichiometry N [2]: 2 Panx peptides per one LC8 homodimer

B2
stoichiometry N [3]: 2

B3
stoichiometry N [4]: 2

B4
binding result [5]: binds

B5
binding result [6]: binds

B6
binding result [7]: binds

B7
stoichiometry N [2]: 2 Panx peptides per two LC8 homodimers

B8
Kd [1]: ~140 nM | stoichiometry N [2]: 2 Panx peptides per one LC8 homodimer
